The source of these data is publication PMC3469540.

The test system of the data set is PSC (Posterior Sex Combs) (Drosophila). Put plainly: centrifugation (array oligomerization). Particulars: 50% of template pelleted; saturates at 2 PSC per nucleosome; not an affinity; Buffer, salt, pH and temperature of the nucleic acid binding assays not given in the material; EMSA on 0.8% agarose, 0.5X TBE after glutaraldehyde …. On the technique in general: A gel shift assay detects complexes by their altered migration in electrophoresis.

In the case of 12-nucleosome array, the K half (PSC per nucleosome) was found to be 0.25.
